Laboratory results published in the supplement of paper PMC10567573.

B1: CSNK1G1 (parent)
chain: GSLPWQGLKADTLKERYQKIGDTK

Variants of: B1
Assay: protein stability index of a GFP-peptide fusion (GPS, HEK-293T) (PSI 1-6); higher = more stable
Settings: c terminus: a fixed tail appended
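Further: lentivirally expressed fusions sorted by FACS into six bins by GFP to DsRed ratio, PSI derived from sequencing read proportions per bin multiplied by bin number.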

| Variant | protein stability index |
| --- | --- |
| GSLPWQGLKADTLKERYTKIGDTK [Q18T] | 4.26 |
| GSLPWQGLKADTLKERYMKIGDTK [Q18M] | 3.64 |
| GSLPWQGLKADTLKERYDKIGDTK [Q18D] | 4.47 |
| GSLPWQGLKADTLKERYIKIGDTK [Q18I] | 3.57 |
| GSLPWQGLKADTLKERYAKIGDTK [Q18A] | 4.46 |
| GSLPWQGLKADTLKERYQKIGDTN [K24N] | 3.91 |
| GSLPWQGLKADTLKERYQKIGDTH [K24H] | 3.6 |
| GSLPWQGLKADTLKERYQKIGDTE [K24E] | 4.88 |
| GSLPWQGLKADTLKERYQKIGDTD [K24D] | 3.25 |
| GSLPWQGLKADTLKERYQKIGDTR [K24R] | 3.72 |
| GSLPWQGLKADTLKERYQKIGDTC [K24C] | 3.4 |
| GSLPWQGLKADTLKERYQKIGDTG [K24G] | 3.79 |
| GSLPWQGLKADTLKERYQKIGDTS [K24S] | 3.79 |
| GSLPWQGLKADTLKERYQKIGDTT [K24T] | 4.08 |
| GSLPWQGLKADTLKERYQKIGDTM [K24M] | 3.19 |
| GSLPWQGLKADTLKERYQKIGDTP [K24P] | 4.2 |
| GSLPWQGLKADTLKERYQKIGDTV [K24V] | 3.39 |
| GSLPWQGLKADTLKERYQKIGDTL [K24L] | 3.3 |
| GSLPWQGLKADTLKERYQKIGDTW [K24W] | 2.95 |
| GSLPWQGLKADTLKERYQKIGDTA [K24A] | 4.01 |
| GSLPWQGLKADTLKERYQKIGDTI [K24I] | 3.53 |
| GSLPWQGLKADTLKERYQKIGDTY [K24Y] | 2.63 |
| GSLPWQGLKADTLKERYQKIGDTF [K24F] | 3 |
| GSLPWQGLKADTLKERYQKIGDTQ [K24Q] | 4.07 |

| Variant | protein stability index |
| --- | --- |
| GSLPWQGLKADTLKERYQKIQDTK [G21Q] | 4.44 |
| GSLPWQGLKADTLKERYQKIDDTK [G21D] | 4.57 |
| GSLPWQGLKADTLKERYQKIYDTK [G21Y] | 3.74 |
| GSLPWQGLKADTLKERYQKILDTK [G21L] | 4 |
| GSLPWQGLKADTLKERYQKIWDTK [G21W] | 3.01 |
| GSLPWQGLKADTLKERYQKIKDTK [G21K] | 4.71 |
| GSLPWQGLKADTLKERYQKIPDTK [G21P] | 4.62 |
| GSLPWQGLKADTLKERYQKISDTK [G21S] | 4.3 |
| GSLPWQGLKADTLKERYQKIVDTK [G21V] | 3.64 |
| GSLPWQGLKADTLKERYQKIFDTK [G21F] | 3.42 |
| GSLPWQGLKADTLKERYQKIEDTK [G21E] | 4.37 |
| GSLPWQGLKADTLKERYQKICDTK [G21C] | 3.29 |
| GSLPWQGLKADTLKERYQKIIDTK [G21I] | 3.41 |
| GSLPWQGLKADTLKERYQKIRDTK [G21R] | 4.16 |
| GSLPWQGLKADTLKERYQKIHDTK [G21H] | 4.15 |
| GSLPWQGLKADTLKERYQKITDTK [G21T] | 3.83 |
| GSLPWQGLKADTLKERYQKIMDTK [G21M] | 3.87 |
| GSLPWQGLKADTLKERYQKIADTK [G21A] | 3.59 |
| GSLPWQGLKADTLKERYQKINDTK [G21N] | 3.86 |
| GSLPWQGLKADTLKWRYQKIGDTK [E15W] | 2.77 |
| GSLPWQGLKADTLKRRYQKIGDTK [E15R] | 3.98 |
| GSLPWQGLKADTLKKRYQKIGDTK [E15K] | 3.29 |
| GSLPWQGLKADTLKLRYQKIGDTK [E15L] | 3.66 |
| GSLPWQGLKADTLKVRYQKIGDTK [E15V] | 3.31 |

| Variant | protein stability index |
| --- | --- |
| GSLPWQGLKADTLKPRYQKIGDTK [E15P] | 3.97 |
| GSLPWQGLKADTLKQRYQKIGDTK [E15Q] | 4.09 |
| GSLPWQGLKADTLKTRYQKIGDTK [E15T] | 3.93 |
| GSLPWQGLKADTLKYRYQKIGDTK [E15Y] | 3.1 |
| GSLPWQGLKADTLKMRYQKIGDTK [E15M] | 3.51 |
| GSLPWQGLKADTLKSRYQKIGDTK [E15S] | 3.47 |
| GSLPWQGLKADTLKIRYQKIGDTK [E15I] | 3.26 |
| GSLPWQGLKADTLKNRYQKIGDTK [E15N] | 3.39 |
| GSLPWQGLKADTLKERYQKIGWTK [D22W] | 2.64 |
| GSLPWQGLKADTLKERYQKIGHTK [D22H] | 3.75 |
| GSLPWQGLKADTLKERYQKIGKTK [D22K] | 3.56 |
| GSLPWQGLKADTLKERYQKIGNTK [D22N] | 3.2 |
| GSLPWQGLKADTLKERYQKIGVTK [D22V] | 3.65 |
| GSLPWQGLKADTLKERYQKIGPTK [D22P] | 3.7 |
| GSLPWQGLKADTLKERYQKIGMTK [D22M] | 3 |
| GSLPWQGLKADTLKERYQKIGETK [D22E] | 3.91 |
| GSLPWQGLKADTLKERYQKIGATK [D22A] | 3.06 |
| GSLPWQGLKADTLKERYQKIGTTK [D22T] | 3.52 |
| GSLPWQGLKADTLKERYQKIGLTK [D22L] | 3.32 |
| GSLPWQGLKADTLKERYQKIGITK [D22I] | 3.41 |
| GSLPWQGLKADTLKERYQKIGQTK [D22Q] | 3.82 |
| GSLPWQGLKADTLKERYQKIGFTK [D22F] | 3 |
| GSLPWQGLKADTLKERYQKIGGTK [D22G] | 3.74 |
| GSLPWQGLKADTLKERYQKIGCTK [D22C] | 3.81 |

| Variant | protein stability index |
| --- | --- |
| GSLPWQGLKADTLKERYQKIGSTK [D22S] | 4.05 |
| GSLPWQGLKADTLKERYQKIGRTK [D22R] | 3.43 |
| GSLPWQGLKADTLKERYQKIGYTK [D22Y] | 2.98 |
| GSLPWQGLKADTLKERMQKIGDTK [Y17M] | 4.23 |
| GSLPWQGLKADTLKEREQKIGDTK [Y17E] | 5.71 |
| GSLPWQGLKADTLKERSQKIGDTK [Y17S] | 4.45 |
| GSLPWQGLKADTLKERVQKIGDTK [Y17V] | 4.04 |
| GSLPWQGLKADTLKERFQKIGDTK [Y17F] | 4.19 |
| GSLPWQGLKADTLKERKQKIGDTK [Y17K] | 4.72 |
| GSLPWQGLKADTLKERIQKIGDTK [Y17I] | 4.21 |
| GSLPWQGLKADTLKERTQKIGDTK [Y17T] | 4.83 |
| GSLPWQGLKADTLKERLQKIGDTK [Y17L] | 4.19 |
| GSLPWQGLKADTLKERDQKIGDTK [Y17D] | 4.99 |
| GSLPWQGLKADTLKERCQKIGDTK [Y17C] | 4.27 |
| GSLPWQGLKADTLKERQQKIGDTK [Y17Q] | 4.81 |
| GSLPWQGLKADTLKERPQKIGDTK [Y17P] | 4.88 |
| GSLPWQGLKADTLKERWQKIGDTK [Y17W] | 3.82 |
| GSLPWQGLKADTLKERGQKIGDTK [Y17G] | 5.36 |
| GSLPWQGLKADTLKERAQKIGDTK [Y17A] | 4.98 |
| GSLPWQGLKADTLKERHQKIGDTK [Y17H] | 5.05 |
| GSLPWQGLKADTLKERRQKIGDTK [Y17R] | 4.13 |
| GSLPWQGLKADTLKERNQKIGDTK [Y17N] | 4.98 |
